Reference: article PMC8346855 (Proceedings of the National Academy of Sciences of the …, 2021)
Positions count from the first letter of the chain named.

B1: mini-Gq (domain or fragment)
chain: GIEKQLQKDKQVYRATHRLLLLGADNSGKSTIVKQMRILHGGSGGSGGTSGIFETKFQVDKVNFHMFDVGGQRDERRKWIQCFNDVTAIIFVVDSSDYNRLQEALNDFKSIWNNRWLRTISVILFLNKQDLLAEKVLAGKSKIEDYFPEFARYTTPEDATPEPGEDPRVTRAKYFIRDEFLRISTASGDGRHYCYPHFTCAVDTENARRIFNDCKDIILQMNLREYNLV
notes: engineered from mGs (Dm5) by nine mutations on the α5-helix that correspond to residues of Gq; only residues of the α5-helix are those of Gq; also called mGq; source: E. coli, purified (Ni Sepharose, TEV cleavage, reverse Ni-NTA, gel filtration); not shown: His tag, N-terminal, cleaved
B2: mini-Gs (domain or fragment)
chain: B1 chain with K215R, L219Q, Q220R, N222H, E225Q, N227E, V229L
notes: thermostabilized truncated Gαs with the GTPase domain, lacking the α-helical domain; also called mGs; source: E. coli, purified (Ni Sepharose, TEV cleavage, reverse Ni-NTA, gel filtration); not shown: His tag, N-terminal, cleaved
B3: mini-Gi (domain or fragment)
chain: B1 chain with C214V, K215T, L219I, Q220K, E225D, Y226C, N227G, V229F
notes: engineered from mGs (Dm5) by seven mutations on the α5-helix that correspond to residues of Gi; only residues of the α5-helix are those of Gi; also called mGi; source: E. coli, purified (Ni Sepharose, TEV cleavage, reverse Ni-NTA, gel filtration); not shown: His tag, N-terminal, cleaved
B4: nanobody 80 (VHH)
VHH: QVQLQESGGGLVQAGGSLRLSCAASGSIFSINTMGWYRQAPGKQRELVAAIHSGGSTNYANSVKGRFTISRDNAANTVYLQMNSLKPEDTAVYYCNVKDYGAVLYEYDYWGQGTQVTVSS
notes: nanobody 80; also called Nb80; NB80; not shown: His6, C-terminal, kept
B5: nanobody 80 (VHH)
VHH: B4 VHH
notes: also called Nb80; a Gs mimetic nanobody; source: purified
B6: mini-Go (domain or fragment)
chain: GIEKNLKEDGISAAKDVKLLLLGADNSGKSTIVKQMKIIHGGSGGSGGTTGIVETHFTFKNLHFRLFDVGGQRSERKKWIHCFEDVTAIIFCVDLSDYNRMHESLMDFDSICNNKFFIDTSIILFLNKKDLFGEKIKKSPLTICFPEYTGPNTYEDAAAYIQAQFESKNRSPNKEIYCHMTCATDTNNAQVIFDAVTDIIIANNLRGCGLY
notes: thermostabilized truncated form of the Gαo subunit with the GTPase domain, lacking the α-helical domain; also called mGo; source: E. coli, purified (Ni Sepharose, TEV cleavage, reverse Ni-NTA, gel filtration); not shown: His tag, N-terminal, cleaved
B7: mini-Go truncated by its last five residues (domain or fragment)
chain: GIEKNLKEDGISAAKDVKLLLLGADNSGKSTIVKQMKIIHGGSGGSGGTTGIVETHFTFKNLHFRLFDVGGQRSERKKWIHCFEDVTAIIFCVDLSDYNRMHESLMDFDSICNNKFFIDTSIILFLNKKDLFGEKIKKSPLTICFPEYTGPNTYEDAAAYIQAQFESKNRSPNKEIYCHMTCATDTNNAQVIFDAVTDIIIANNLR
notes: mGo (Dm6) without its last five residues GCGLY; also called mGo_Δ5; source: E. coli, purified (same protocol as the mGα proteins); not shown: His tag, N-terminal, cleaved

What was measured:
Settings in all cases: both partners purified
[1] = target: T1, thermostabilized turkey beta-1 adrenergic receptor (turkey); test: cross-linking + other: high-mass MALDI-MS; isoprenaline-bound β1AR (iso-β1AR), 5 µM, mixed with partner protein at various concentrations, 1 h at room temperature, BS(PEG)9 cross-linking, 0.6 µM β-Gal as internal standard; 20 mM Hepes pH 7.5, 40 mM NaCl, 0.01% LMNG; Ka = 1/Kd
T1 construct: turkey beta-1 adrenergic receptor, thermostabilized, truncated at the C terminus and intracellular loop 3; the states are told apart by the assay; also called β1AR; apo-β1AR

[2] = target: T1, thermostabilized turkey beta-1 …; test: cross-linking + other: high-mass MALDI-MS; competition: Nb80 (0 to 13.3 µM) added to iso-β1AR (2.5 µM) and mGo (3.0 µM), 1 h at room temperature, BS(PEG)9 cross-linking, β-Gal as internal standard; read-out β1AR•mGo formation
[3] = target: T2, thermostabilized turkey beta-1 adrenergic receptor (Meleagris gallopavo (turkey), stabilised); test: cross-linking; Kd by titrating the partner protein against isoprenaline-bound β1AR; 20 mM Hepes pH 7.5, 40 mM NaCl, 0.01% lauryl maltose neopentyl glycol; BS(PEG)9, high-mass MALDI-MS, normalised to β-galactosidase
T2 construct: beta-1 adrenergic receptor, turkey, thermostabilized, truncated at the C terminus and intracellular loop 3; Not treated with kinases; Small-molecule ligand states are told apart by the assay; also called β1AR; apo-β1AR; source: purified

[4] = target: T2, thermostabilized turkey beta-1 …; test: cross-linking; competition: 2.5 μM β1AR, 3.0 μM mGo, increasing concentrations of Nb80; BS(PEG)9, high-mass MALDI-MS
[5] = target: T1, thermostabilized turkey beta-1 …; test: cross-linking + other: high-mass MALDI-MS; ligand-free (apo) GPCR, 5 µM, mixed with partner protein at various concentrations, 1 h at room temperature, BS(PEG)9 cross-linking, β-Gal as internal standard; 20 mM Hepes pH 7.5, 40 mM NaCl, 0.01% LMNG; Ka = 1/Kd
[6] = target: T1, thermostabilized turkey beta-1 …; test: cross-linking + other: high-mass MALDI-MS; formation of β1AR•mGo with the titration of mGo, reading of EC50 (Graphpad); ligand state of β1AR not told for this curve

T1 sequence (chain, as listed by the source): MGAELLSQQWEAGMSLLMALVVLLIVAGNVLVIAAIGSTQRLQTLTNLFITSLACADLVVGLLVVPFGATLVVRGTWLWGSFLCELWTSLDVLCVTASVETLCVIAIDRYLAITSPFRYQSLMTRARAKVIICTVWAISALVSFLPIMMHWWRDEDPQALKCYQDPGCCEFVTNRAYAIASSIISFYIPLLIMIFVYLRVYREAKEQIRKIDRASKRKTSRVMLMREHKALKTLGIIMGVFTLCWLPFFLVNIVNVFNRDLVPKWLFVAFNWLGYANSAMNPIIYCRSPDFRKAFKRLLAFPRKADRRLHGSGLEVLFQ
T2 sequence (P07700 other isoform, or with tags, fused parts or gaps, stated change not applied): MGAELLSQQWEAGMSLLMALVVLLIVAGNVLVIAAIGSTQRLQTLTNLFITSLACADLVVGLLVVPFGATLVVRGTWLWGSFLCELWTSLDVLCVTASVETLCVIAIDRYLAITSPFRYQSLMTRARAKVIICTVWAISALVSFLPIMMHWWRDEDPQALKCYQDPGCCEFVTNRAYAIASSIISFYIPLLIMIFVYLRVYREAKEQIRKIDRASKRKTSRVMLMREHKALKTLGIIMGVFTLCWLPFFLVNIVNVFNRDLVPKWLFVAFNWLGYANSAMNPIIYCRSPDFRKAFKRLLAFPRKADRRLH

| Binder | Ka [1] [M⁻¹] | further results |
| --- | --- | --- |
| B1 | 810000 | – |
| B2 | 2.86e+06 | – |
| B3 | 620000 | – |
| B4 | 4.76e+06 | IC50 [2]: 4610 nM |
| B5 | – | Kd [3]: 210 nM; Ki [4]: 1570 ± 240 nM |
| B6 | 4e+06 | Ka [5]: 4e+06 M⁻¹; EC50 [6]: 1580 nM |
| B7 | 4.17e+06 | Ka [5]: 3.57e+06 M⁻¹ |
